According to article PMC10012886:
Values joined by “and” are separate entries in the source; they are usually repeats but may differ in a detail not shown here. Identical values can stand only once. One block for each substance: values may come before it.

Experiments:
[1] = molecular target: human CTLA-4 on 293 T-CTLA4 cells (human) (UniProt P16410); experiment: flow cytometry on cells
[2] = molecular target: human PD-1 on 293 T-PD1 cells (human) (UniProt Q15116); experiment: flow cytometry on cells
[3] = molecular target: fusion protein of mouse Fc with human PD-1 extracellular domain (PD1-mFc) (Homo sapiens (Human).) (UniProt Q15116); experiment: ELISA
[4] = molecular target: fusion protein of human Fc with human PD-1 extracellular domain (PD1-hFc) (human) (UniProt Q15116); experiment: ELISA
[5] = molecular target: human PD-1 and CTLA-4 mixture (mol/mol: 1/1) immobilized on AMC sensors (human); experiment: BLI
[6] = molecular target: Cadonilimab (hG1WT); experiment: BLI
[7] = molecular target: FcγRIIIa_F158 (FcγRIIIa 158 F alleles) (UniProt P08637); experiment: BLI
UniProt P08637, sequence (P08637 17-254): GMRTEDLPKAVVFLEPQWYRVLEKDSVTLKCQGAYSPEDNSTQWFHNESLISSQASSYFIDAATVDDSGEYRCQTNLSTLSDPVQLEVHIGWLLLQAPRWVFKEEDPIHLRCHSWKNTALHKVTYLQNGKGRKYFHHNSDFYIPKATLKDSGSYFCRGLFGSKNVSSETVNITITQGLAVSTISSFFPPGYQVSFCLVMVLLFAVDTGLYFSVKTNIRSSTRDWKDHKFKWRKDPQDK

[8] = molecular target: FcγRIIIa_V158 (FcγRIIIa 158 V alleles); experiment: BLI
[9] = molecular target: FcγRIa (UniProt P12314); experiment: BLI
UniProt P12314, sequence (P12314 16-374): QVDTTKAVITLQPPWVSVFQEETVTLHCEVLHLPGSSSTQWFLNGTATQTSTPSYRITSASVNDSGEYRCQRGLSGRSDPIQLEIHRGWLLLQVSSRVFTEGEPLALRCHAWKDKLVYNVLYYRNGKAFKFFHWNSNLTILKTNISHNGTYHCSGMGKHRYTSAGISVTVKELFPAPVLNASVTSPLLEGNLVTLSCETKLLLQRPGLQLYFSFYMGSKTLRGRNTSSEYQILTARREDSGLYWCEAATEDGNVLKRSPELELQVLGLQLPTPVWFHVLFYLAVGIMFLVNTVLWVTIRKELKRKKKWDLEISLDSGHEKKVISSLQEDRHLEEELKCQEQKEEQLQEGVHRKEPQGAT

UniProt P16410, sequence (P16410 36-223): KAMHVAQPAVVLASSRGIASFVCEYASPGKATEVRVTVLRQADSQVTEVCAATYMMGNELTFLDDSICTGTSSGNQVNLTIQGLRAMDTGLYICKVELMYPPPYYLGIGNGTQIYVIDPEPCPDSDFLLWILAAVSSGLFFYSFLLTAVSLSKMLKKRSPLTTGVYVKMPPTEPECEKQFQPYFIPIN

- EC50 [1]: 3.93 nM and 3.09 nM
- EC50 [2]: 1.81 nM and 2.62 nM
- EC50 [3]: 0.051 nM
- EC50 [4]: 0.792 nM and 1.43 nM
- fold higher binding avidity than with low-density PD-1 [5]: 10 fold
Substance: Cadonilimab (bispecific antibody)

- Kd [6]: 2.53 nM
- koff [6]: 0.00517 s⁻¹
- kon [6]: 2.05e+06 M⁻¹ s⁻¹
Substance: C1q (complex)

- Kd [7]: 221 nM
- koff [7]: 0.0247 s⁻¹
- kon [7]: 112000 M⁻¹ s⁻¹
- Kd [8]: 177 nM
- koff [8]: 0.0214 s⁻¹
- kon [8]: 121000 M⁻¹ s⁻¹
- Kd [9]: 5.92 nM
- koff [9]: 0.00181 s⁻¹
- kon [9]: 306000 M⁻¹ s⁻¹
Substance: Cadonilimab (hG1WT) (bispecific antibody)
